Assay: yeast display, Sf9 membrane polyspecificity reagent, FACS + sequencing; frameworks hold sequencing errors
Outline: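 Sorting gates, low and high (top ~1%), were placed on anti-HA fluorescence to track expression and on streptavidin fluorescence to track reagent binding. A clone's polyreactivity label is taken from the gate it came out of. The reagent was 10% biotinylated, detergent-solubilized Sf9 membrane, applied for 1 hour at 4 °C to galactose-induced yeast display cells.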

Sequence | polyreactivity (PSR sort gate)
QVQLVESGGGLVQAGGSLRLSCAASGRIFEEYAMGWYRQAPGKERELVAAITWGGSTYYADSVKGRFTISRDNAKNTVYLQMNSLKPEDTAVYYCAALKSYYWYTPRYRGDYWGQGTQVTVSS | low polyreactivity
QVQLVESGGGLVQAGGSLRLSCAASGRIFENNAMGWYRQAPGKERELVAAITSGGSTYYADSVKGRFTISRDNAKNTVYLQMNSLKPEDTAVYYCNVTFRVDPWTRTGYDYWGQGTQVTVSS | high polyreactivity
QVQLVESGGGLVQAGGSLRLSCAASGRIFEPYAMGWYRKAPGKERELLAAITSGGSTDYADSVKGRFTISRDNAKNTVYLQMNSLKPEDTAVYYCATRWGYAVSFDFYFLLSGVDYWGQGTQVTVSS | low polyreactivity
QVQLVESGGGLVQAGGSLRLSCAASGRIFESYAMGWYIQAPGKERELVAAISSGGGTTYYADSVKGLFTISRDNAKYSVYLQMNSLKPEDTAVYYCAADALSDEYDYWGQGTHVTVSS | low polyreactivity
QVQLVESGGGLVQAGGSLRLSCAASGRIFETNGMGWYRQAPGKERELVAAITRSGGVRTYADSVKGRFTISRDNAKNTVYLQMNSLKPEDTAVYYCNKRSILGRGTPSPYKRMYHWGQGTQVTVSS | low polyreactivity
QVQLVESGGGLVQAGGSLRLSCAASGRIFEVYAMGWYRQAPGKERELVAAITSSGGSRTYYADSVKGRFTISRDNAKNTVYLQMNSLKPEDTAVYYCNDYGGRWIGGRRAYRYNYWGQGTQVNVSS | high polyreactivity
QVQLVESGGGLVQAGGSLRLSCAASGRIFEWNTMGWYRQAPGKEREVVATISWDGGSTYYADSVKGRFTISRDNAKNTVYLQMNSLIPEDTAVYYCNKSPLNFFRFRATYDYWGQGTQVTVSS | low polyreactivity
QVQLVESGGGLVQAGGSLRLSCAASGRIFFANAMGWYRQAPGKERELVAAITSDGSTDYADSVKGRFTISRDNAKNTVYLQMNSLKPEDTAVYYCNADAYYRYGITMDYWGQGTQVTVSS | low polyreactivity
QVQLVESGGGLVQAGGSLRLSCAASGRIFFANTMGWYRQAPGKERELVAAISLSSGSTYYADSVKGRFTISRDNAKNTVYLQMNSLKPEDTAVYYCAARGYSHVASRLYYYWGQGTQVTVSS | high polyreactivity
QVQLVESGGGLVQAGGSLRLSCAASGRIFFANTMGWYRQAPGKERELVAAISLSSGTTYYADSVKGRFTISRDNAKNTVYLQMNSLKPDETAVYYCAARGYSHVASRLYYYWGQGTQVTVSS | high polyreactivity
QVQLVESGGGLVQAGGSLRLSCAASGRIFFATAMGWYRQAPGNERELVAAITSDGSTDYADSVKGRFTISRDNAKNTVYLQMNSLKPEDTAVYDCNADAYYRYGITMDYWGQGTQVTVSS | low polyreactivity
QVQLVESGGGLVQAGGSLRLSCAASGRIFFFNTMGWYRQAPGKERELVARINRGGRTNYADSVKGRFTISRDNAKNTVYLQMNSLKPEDTAVYYCAADRTWYKLETTEYDYWGQGTQVTVSS | high polyreactivity
QVQLVESGGGLVQAGGSLRLSCAASGRIFFHNAMGWYIQAPGKERELVATISWSGSSTYYADSVKGRFTISRDNAKNTVYLQMNSLKPEYTAVYYCNAVYGRFVVLRYDYWGQGTQVTVSS | high polyreactivity
QVQLVESGGGLVQAGGSLRLSCAASGRIFFLYAMGWYRQAPGKERELVASITRRGGSTYYADSVKGRFTISRDNAKNTVYLQMKSLKPEDTAVYYCAAELYRSNVYHYDYWGQGTQVTVSS | high polyreactivity
QVQLVESGGGLVQAGGSLRLSCAASGRIFFLYAMGWYRQAPGKERELVASITRRGGSTYYADSVKGRVTISRDNAKNTVYLQMTSLKPEDTAVYYCAAELYRSNVYHYDYWGQGTQVTVSS | high polyreactivity
QVQLVESGGGLVQAGGSLRLSCAASGRIFFNYAMGWYIQAPGKERELVARITGSGGRTYYADSVKGRFTISRDNAKNTVYLQMNSLKPEDTAVYYCNKVPGYKYDSWGQGTQVTVSS | high polyreactivity
QVQLVESGGGLVQAGGSLRLSCAASGRIFFNYAMGWYRQAPGKQRELDAAITTNGGSTYYAVSVKGRFTISRDNAKNTVYLLMNSLKPEDTAVYYCNTRRKNFVKSSQVEYWGQGTQVTVSS | high polyreactivity
QVQLVESGGGLVQAGGSLRLSCAASGRIFFRNAMGWYRQAPGKEREFVAAINWSGGSTYYADSVKGRFTISRDNAKNTVYLQMNSLKPEDTAVYYCAARGSRGGRRGATASMDYWGQGTQVTVSS | high polyreactivity
QVQLVESGGGLVQAGGSLRLSCAASGRIFFRYAMGWYRQAPGKERELVAAISYSGGSTYYADSVKGRFTISRDNAKNTVYLQMNSLKPDDTAVYYCATGPVYEYDYWGQGTQVTVSS | low polyreactivity
QVQLVESGGGLVQAGGSLRLSCAASGRIFFVNAMGWYRQAPGKERELVAAITYSGARTYYADSVKGRFTISRDHAKNTVYLQMNSLKPEDTAVYYCNADQRTASDQLEFDYWGQGTQVTVSS | low polyreactivity
QVQLVESGGGLVQAGGSLRLSCAASGRIFFWYAMGWYRQAPGKERELVAAISKSGGSTYYADSVKGRFTISRDNAKNTVYLQMNSLKPEDTAVYYCARVSKRTWSGYYYWGQGTQVTVSS | high polyreactivity
QVQLVESGGGLVQAGGSLRLSCAASGRIFFYNAMGWYRQAHGKERELVAAISARGDRTYYADSVKGRFTISRDNAKNTVYLQMNSLKPEDTAVYYCAADYYNYRYDYWGQGTQVTVSS | high polyreactivity

Sequence | polyreactivity (PSR sort gate)
QVQLVESGGGLVQAGGSLRLSCAASGRIFFYNAMGWYRQAPGKERELVATIRGGGSTNYADSVKGRFTISRDNAKNTVYLQMNSLKPEDTAVYYCAARRGSYSVTEYWGQGTQVTVSS | high polyreactivity
QVQLVESGGGLVQAGGSLRLSCAASGRIFFYNAMGWYRQAPGKETELVAAISSSGGSTSYADSVKGRFTISRDIAKNTVYLHMNSLKPEDTAVYYCAVDDPYYEKYDYWGQGTQVTVSS | low polyreactivity
QVQLVESGGGLVQAGGSLRLSCAASGRIFFYYAMGWYRQAPGKERELVAAINRGGRTYYADSVKGRFTISRDNAKNTVYLQMNSLKPEDTAVYYCAADGQTAKSNFDYWGQGTQVTVSS | low polyreactivity
QVQLVESGGGLVQAGGSLRLSCAASGRIFFYYAMGWYRQAPGKERELVAAIRSGGSTNYADSVKGRFTISRDNAKNTVYLQMNSLKPEDTAVYYCAADPSRYYTRRYYYWGQGTQVTVSS | high polyreactivity
QVQLVESGGGLVQAGGSLRLSCAASGRIFFYYAMGWYRQAPGKERELVAAISNSGGGTYYADSVKGRFTISRDNAKNTVYLQMNSLKPEDTAVYYCAREAGRYAYKYYWWQRPDYDYWGQGTQVTVSS | low polyreactivity
QVQLVESGGGLVQAGGSLRLSCAASGRIFFYYAMGWYRQAPGKERELVATITASGDSTYYADSVKGRFTISRDNAKNTVYLQMNSLKPEDTAVYYCAADDGDYYEVDYWGQGTQVTVSS | low polyreactivity
QVQLVESGGGLVQAGGSLRLSCAASGRIFGAYALGWSRQAPGKEMELVADIRSTGSTYYADSVKGRFTISRDNAKNTVYLQMNSLKPEDTAVYYCAAKYWKWYHYGFGYWGQGTQVTVSS | high polyreactivity
QVQLVESGGGLVQAGGSLRLSCAASGRIFGAYAMGWYRPAPGKERELVAAISARGGRTYYADSVKGRFTISRDNAKNTVYLQMNSLKPEDTAVYYCAKTLRDPYRYDYWGQGTQVTVSS | high polyreactivity
QVQLVESGGGLVQAGGSLRLSCAASGRIFGAYAMGWYRQAPGKERELVAAISSRGGNTYYADSVKGRFTISRDNAKNTVYLQMNSLKPEDTAVYYCAARHDKRRQYYVGQSDFDYWGQGTQVTVSS | low polyreactivity
QVQLVESGGGLVQAGGSLRLSCAASGRIFGAYAMGWYRQAPGKERELVATITKRGGSTFYADSVKGRFTISRDNAKNTVYVKMNSLKPEDTAVYYCAVVRYSPKRYWYGYWGQGTQVTVSS | high polyreactivity
QVQLVESGGGLVQAGGSLRLSCAASGRIFGAYAMGWYRQAPGKEREWVAVINWRSGGTYYADSVKGRFTISRDNAKNTVYLQMNSLKPVDTAVYYCAADDYGFFSAGDFDYWGHGTQVTVSS | high polyreactivity
QVQLVESGGGLVQAGGSLRLSCAASGRIFGDYALGWYRQAPGKERELVAAISWSDGSTYYADSVKGRFTISRDKAKNTVYLQMNSLKPEDTAVYYCAAYGWGYSYVDVVVSDFYYWGQGTQVTVSS | low polyreactivity
QVQLVESGGGLVQAGGSLRLSCAASGRIFGDYGMGWYRQAPGKERELVAAITDRGGPTYYADSVKGRFTISRDNAKNTVYLQRNSLKPEDTAVYYCNARQSDIFDYDYWGQGTQVTVSS | low polyreactivity
QVQLVESGGGLVQAGGSLRLSCAASGRIFGDYGMGWYRQAPGNERELVAAITDRGGTTYYADSVKGRFTISRDNAKNTVYLQMNSLKPEDTAVYYCNARQSDIFDYDYWGQGTQVTVSS | low polyreactivity
QVQLVESGGGLVQAGGSLRLSCAASGRIFGENAMGWYRQAPGKEREFVAVISISDASTYYADSVKGRFTISRDNAKNTVYLQMNSLKPEDTAVYYCNTDYINGYYIEGEPPYKFDYWGQGTQVTVSS | low polyreactivity
QVQLVESGGGLVQAGGSLRLSCAASGRIFGFNTMGWYRQAPGKERELVAAITSGGSTYADSVKGRFTISRDNAKNTVYLQMNSLKPEDTAVYYCNTRFYRPLWGYNYWGQGTQVTVSS | low polyreactivity
QVQLVESGGGLVQAGGSLRLSCAASGRIFGGNAMGWSRQAPGKERELVAAISWSGGSTYADSVKGRFTISRDNAKNTVYLQMNSLKPEDTAVYYCATRLVKYYYYDYRTYGRRYDYWGQGTQVTVSS | high polyreactivity
QVQLVESGGGLVQAGGSLRLSCAASGRIFGGYALGWYRQAPGKERELVAAITRSGGSTYYADSVKGRFTISRDNAKNTVYVQMNSLKPEDTAVYYCAARNYYSWRYDYWGQGTQVTVSS | high polyreactivity
QVQLVESGGGLVQAGGSLRLSCAASGRIFGGYAMGWYRQAPGKERELVASITGGGTTDYADSVKGRFTISRDNAKNTVYLQMNSLKPEDTAVYNCAIRTHQFGVSRSYNTYYYWGQGTQVTVSS | low polyreactivity
QVQLVESGGGLVQAGGSLRLSCAASGRIFGGYAMGWYRQAPGKERELVPSITGRATSTYYADSVKGRFTISRDNAKNTVYLQMNRLKPEDTAVYYFNALYRKYRNQWYISNYGYYYWGQGTQVTVSS | low polyreactivity
QVQLVESGGGLVQAGGSLRLSCAASGRIFGHYAMGWYRQAPGKERELVAAISRSGTRTYYADSVKGRFTISRDNAKNTVYLQMNSLKPEDTAVYYCAAYTYKGIYYYWGQGTQVTVSS | high polyreactivity
